# Data taken from US11344542B2, “Treatment of aging-associated disease with modulators of leukotriene A4 hydrolase” (Alkahest, Inc., priority 2018, dated 2022).
# B1: recombinant human LTA4H: Recombinant human LTA4H (Bio-techne, 4008-SN), leukotriene A4 hydrolase enzyme, dosed by tail vein i.v. injection (protein, UniProt P09960 2-611, looked up)
# Leukotriene A-4 hydrolase: PEIVDTCSLASPASVCRTKHLHLRCSVDFTRRTLTGTAALTVQSQEDNLRSLVLDTKDLTIEKVVINGQEVKYALGERQSYKGSPMEISLPIALSKNQEIVIEISFETSPKSSALQWLTPEQTSGKEHPYLFSQCQAIHCRAILPCQDTPSVKLTYTAEVSVPKELVALMSAIRDGETPDPEDPSRKIYKFIQKVPIPCYLIALVVGALESRQIGPRTLVWSEKEQVEKSAYEFSETESMLKIAEDLGGPYVWGQYDLLVLPPSFPYGGMENPCLTFVTPTLLAGDKSLSNVIAHEISHSWTGNLVTNKTWDHFWLNEGHTVYLERHICGRLFGEKFRHFNALGGWGELQNSVKTFGETHPFTKLVVDLTDIDPDVAYSSVPYEKGFALLFYLEQLLGGPEIFLGFLKAYVEKFSYKSITTDDWKDFLYSYFKDKVDVLNQVDWNAWLYSPGLPPIKPNYDMTLTNACIALSQRWITAKEDDLNSFNATDLKDLSSHQLNEFLAQTLQRAPLPLGHIKRMQEVYNFNAINNSEIRFRWLRLCIQSKWEDAIPLALKMATEQGRMKFTRPLFKDLAAFDKSHDQAVRTYQEHKASMHPVTAMLVGKDLKVD
# Legend:
# Type in all cases: in vivo, mouse
# [1] = test system: microglia in the hippocampus; experiment: Histology of microglia markers (Iba1, CD68) in the hippocampus of young mice
# Description: Brains were collected following saline perfusion and separated by mid-sagittal slice with one-half drop fixed in freshly prepared 4% PFA. PFA was changed to 30% sucrose 24-48 hours later. A second change to 30% sucrose occurred 24 hours later. The second half was dissected into hippocampus and cortex and then snap frozen on dry ice.
# Brain tissue was sectioned or lysed and analyzed for markers of neurogenesis and aging by standard histological and biochemical methods, including qRT-PCR, Western blot, ELISA, and immunohistochemistry.
# (§1) The initial study in young, 8-week old wild-type (WT; C57BL/6) mice was repeated in a second cohort of mice with additional timepoints and readouts. Mice were homogenized between 3 treatment groups by body weight. Group 1 (Vehicle) was injected intravenously (IV) with PBS control 3 times per week for 6 weeks, group 2 (LTA4H Pulse) with recombinant human LTA4H protein daily for 7 consecutive days, and group 3 (LTA4H Continuous) with recombinant human LTA4H protein 3 times per week for 6 weeks. In week 4 after the initiation of dosing, mice in all treatment groups were injected IP with BrdU (5-bromo-2′-deoxyuridine) formulated in PBS (phosphate buffered saline) at a final concentration of 10 mg/mL dosed at 150 mg/kg for 5 days. […]
# [2] = test system: 8-week old (young) wild-type (C57BL/6) mice; experiment: Y-maze in young mice treated with recombinant human LTA4H protein
# Description: A large Y-maze test assessed short-term memory of the familiarity of a specific context. Mice were brought to the experimental room for at least 30 min of acclimation to the experimental room conditions (dim lighting) prior to testing. For the initial training trial, the mouse was placed at the end of one arm of a large Y-maze designated “start arm” (arm length: 15 inches). The third arm of the maze was blocked off, allowing the mouse to explore two of the three arms freely (“start arm” and “familiar arm”) for 5 min. Each arm contained spatial cues. Three hours later, the mouse was placed back into the maze in the “start arm,” and allowed to explore all three arms with the third arm unblocked (“novel arm”). Movements in and out of each arm were tracked using automated tracking software (CleverSys or San Diego Instruments). Testing was performed under dim lighting, and the apparatus was cleaned with 70% ethanol between trials. The time spent and number of entireties into the “novel arm” and “familiar arm” were analyzed, as well as total distance travelled and velocity as measures of general locomotor activity.
# as §1, with “days. Behavioral assays were executed in week 5 and 6, and animals were sacrificed, and tissues collected immediately after completion of behavior testing in week 6. FIG. 10 depicts the treatment paradigm and injection timing for the study.” for “days.”
# [3] = test system: 8-week old (young) wild-type (C57BL/6) mice; experiment: Contextual and cued fear conditioning in young mice treated with recombinant human LTA4H protein
# Description: Mice were brought into the testing room immediately before their trial to avoid exposure to sounds and scents from testing. Day 1: For training, mice were placed in the chambers, bright house light and fan on, for 2 minutes. Then an auditory cue (2000 Hz, 70 dB, conditioned stimulus (CS)) was presented for 30 seconds. A 2 second foot shock (0.6 mA; unconditioned stimulus (US)) was administered for the final 2 seconds of the CS. This procedure was repeated once, each after a 2 minute interval, and the mouse was removed from the chamber 30 seconds after the second shock. The pans, chamber walls and grid floors were cleaned with 70% ethanol between trials. Day 2: Seventy-two hours after the training, the mouse was returned to the same chamber in which the training occurred (memory for context), and freezing behavior was recorded for 3 min. The mouse was returned to its home cage. The pans, chamber walls, and grid floors were cleaned with 70% ethanol between trials. Day 3: 24 hours after context testing, the mouse was returned to the same chamber and freezing was recorded in a novel environment (altered context) and in response to the cue (memory for cue). […] The mouse was placed in the novel environment and freezing was recorded for 2 minutes. The auditory cue (2000 Hz, 70 dB, CS) was then presented for 30 seconds, and freezing was again recorded for 2 minutes. […]
molecule,measurement,setting,value
B1,average number of Iba1-labeled cells in the hippocampus,"[1]; paradigm 2: pulse dosing, relative to vehicle PBS",significant increase
same,average number of CD68-labeled cells in the hippocampus,"[1]; paradigm 3: 10 days following pulse dosing (IV daily, 7 days), relative to PBS",significant increase
same,memory of the familiar arm in Y-maze testing (novel vs familiar arm entries),[2]; paradigm 2: continuous dosing,impaired memory
same,memory of the familiar arm in Y-maze testing (novel vs familiar arm entries),[2]; paradigm 2: pulse dosing,impaired memory
same,number of entries into the familiar arm during Y-maze training,"[2]; paradigm 2: pulse or continuous dosing, vs PBS",no differences
same,percent time freezing during contextual testing,"[3]; 72 hours after training, IV daily for 7 consecutive days, vs PBS",significantly decreased freezing
same,percent time freezing during cued testing,"[3]; pre/post cue tone, difference between treatment groups",no significant difference between treatment groups
